# Measurements published in patent US20220177587A1, “METHODS AND USES OF VARIANT CD80 FUSION PROTEINS AND RELATED CONSTRUCTS” (Alpine Immune Sciences, Inc., priority 2018, published 2022).
# Key:
# CD28 [1] = molecular target: T1, CD28 (Homo sapiens, UniProt P10747); experiment: Flow binding to Jurkat/IL2 reporter cells (CD28); set-up: host or cells: Jurkat cells expressing an IL-2-luciferase reporter; conditions: for CD28 Fold change to WT CD80: MFI ratio to WT CD80 ECD-Fc (R&D) at 33.3 nM
# Outline: (§1)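 Fusion proteins bound to CHO cells stably expressing CTLA4 or PD-L1, or to Jurkat/IL2 reporter cells with endogenous CD28, for 45 min on ice after blocking in PBS/1% BSA. Detection with PE anti-human Fc by flow cytometry; PE MFI per cell type and binding EC50 determined.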
# CD28 [2] = molecular target: T1, CD28; experiment: Jurkat/IL2 + K562/OKT3/PD-L1 reporter assay; type: cell-based; set-up: host or cells: Jurkat cells expressing an IL-2-luciferase reporter; conditions: K562/OKT3/PD-L1 aAPC, 50 nM; for Fold Increase over WT CD80-IgV-Fe / Relative Luciferase Units (RLU), CD80-Fe Cone 50 nM: Table E8
# huCTLA4 = huCTLA4 (Homo sapiens, UniProt P16410); experiment: Flow binding to CHO cells stably expressing CTLA4; set-up: huCTLA4 and huPD-L1, full-length mammalian surface expression constructs were generated; expressed in transfected cells; host or cells: CHO cells, lentiviral transduction, sorted to >98% purity; conditions: for CTLA4 Fold change to WT CD80: MFI ratio to WT CD80 ECD-Fc (R&D) at 33.3 nM
# Outline: as §1
# huPD-L1 = huPD-L1 (Homo sapiens, UniProt Q9NZQ7); experiment: Flow binding to CHO cells stably expressing PD-L1; set-up: huCTLA4 and huPD-L1, full-length mammalian surface expression constructs were generated; expressed in transfected cells; host or cells: CHO cells, lentiviral transduction, sorted to >98% purity; conditions: for PD-L1 Fold change to WT CD80: MFI ratio to WT CD80 ECD-Fc (R&D) at 33.3 nM; for Ratio of PDL1:CD28: binding to PD-L1 compared to binding to CD28
# Outline: as §1
# CD28 [3] = molecular target: T1, CD28; experiment: Jurkat/IL2 reporter assay: blockade of CD28 costimulation (plate-bound anti-CD3/CD86-Fc); type: cell-based; set-up: host or cells: Jurkat cells expressing an IL-2-luciferase reporter; conditions: Table E5; protein diluted to 40 nM before mixing with cells; 5 hours
# Outline: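 Jurkat cells carrying an IL-2–luciferase reporter were preincubated 15 min at room temperature with CD80-Fc fusion molecules, then added to plates coated overnight with anti-CD3 and CD86-Fc. After 5 h at 37 °C, luciferase luminescence was read with Bio-Glo.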
# CD28 [4] = molecular target: T1, CD28; experiment: Jurkat/IL2 + CHO/OKT3 +/- PD-L1 reporter assay: PD-L1-dependent CD28 costimulation; type: cell-based; set-up: host or cells: Jurkat cells expressing an IL-2-luciferase reporter; conditions: luciferase signal; for PD-L1-Dependent CD28 Costimulation, +PD-L1, 0.6 nM / PD-L1-Dependent CD28 Costimulation, +PD-L1, 50 nM: CHO/OKT3/PD-L1 aAPC; for PD-L1-Dependent CD28 Costimulation, No PD-L1, 50 nM / PD-L1-Dependent CD28 Costimulation, No PD-L1, […]: CHO/OKT3 aAPC
# Outline: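 Jurkat reporter cells (100,000/well) preincubated 15 min at room temperature with test protein, then cocultured 5 h at 37 °C with CHO aAPCs bearing anti-CD3 scFv (OKT3) with or without PD-L1. Luciferase luminescence (RLU) read after lysis-substrate addition.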
# CD28 [5] = molecular target: T1, CD28; experiment: CD28 costimulation via Fc receptor or PD-L1 dependent cross-linking (Jurkat/IL2 + K562/OKT3 +/- PD-L1); type: cell-based; set-up: host or cells: Jurkat cells expressing an IL-2-luciferase reporter; conditions: K562/0KT3 aAPC, luciferase signal
# Procedure: In a further experiment, CD28 costimulation was assessed for variant CD80-IgV-Fc fusion proteins, where the Fc was an IgG1 Fc (e.g. SEQ ID NO:1517) capable of mediating effector activity via binding to Fc receptors (FcR). The experiment was carried out as described in part A above, except CD32-expressing K562 cells stably transduced with OKT3 (K562/OKT3) or OKT3 and PD-L1 (K562/OKT3/PD-L1) were used instead of the CHO/OKT3 and CHO/OKT3/PD-L1 cells, and the results are depicted in Table E9.
# [6] = Table E4, 33.3 nM variant CD80 IgV-Fc, CHO cells stably expressing CTLA4
# [7] = Table E4, CHO cells stably expressing PD-L1
# Chain of huCTLA4 (P16410 36-223): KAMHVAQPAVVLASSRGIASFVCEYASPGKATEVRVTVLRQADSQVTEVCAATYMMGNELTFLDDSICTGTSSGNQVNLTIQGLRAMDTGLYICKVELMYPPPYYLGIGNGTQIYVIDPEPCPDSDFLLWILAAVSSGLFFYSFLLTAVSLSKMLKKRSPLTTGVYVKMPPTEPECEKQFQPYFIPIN
# Chain of huPD-L1 (Q9NZQ7 19-290): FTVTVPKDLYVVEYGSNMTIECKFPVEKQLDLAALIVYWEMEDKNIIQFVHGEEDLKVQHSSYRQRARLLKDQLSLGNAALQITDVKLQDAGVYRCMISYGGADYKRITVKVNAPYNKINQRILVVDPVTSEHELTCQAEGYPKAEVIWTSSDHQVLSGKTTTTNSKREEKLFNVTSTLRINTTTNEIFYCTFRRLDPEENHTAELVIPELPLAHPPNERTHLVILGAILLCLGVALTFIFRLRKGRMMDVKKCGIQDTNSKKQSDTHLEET
"CD28 MFI at 33.3 nM (CD28 [1]; Table E4, Jurkat cells (CD28))",CD28 Fold change to WT CD80 (CD28 [1]; Table E4),Fold Increase over WT CD80-IgV-Fe (CD28 [2]),"Relative Luciferase Units (RLU), CD80-Fe Cone 50 nM (CD28 [2])",CTLA4 MFI at 33.3 nM (huCTLA4; [6]),CTLA4 Fold change to WT CD80 (huCTLA4; Table E4),PD-L1 MFI at 33.3 nM (huPD-L1; [7]),PD-L1 Fold change to WT CD80 (huPD-L1; Table E4),Ratio of PDL1:CD28 (huPD-L1; Table E4),Molecule,also measured
,,,,,,,,,"E35D/M47L/L85Q: variant CD80 IgV-Fc, IgV SEQ ID NO:418 (protein) VIHVTKEVKEVATLSCGHNVSVEELAQTRIYWQKDKKMVLTMMSGDLNIWPEYKNRTIFDITNNLSIVILALRPSDEGTYECVVQKYEKDAFKREHLAEVTLSVKAD","CD28 MFI at 33.3 nM (CD28 [1]; Table E3): 646; CD28 MFI at 33.3 nM (CD28 [1]; Table E19, Jurkats (CD28)): 46.3; Relative Luciferase Units (RLU), CD80-Fc Conc. 50 nM (CD28 [2]; Table E7): 2852 RLU; CTLA4 MFI at 33.3 nM (huCTLA4; Table E3, 33.3 nM): 336179; CTLA4 MFI at 33.3 nM (huCTLA4; Table E19, CHO cells stably expressing CTLA4, 33.3 nM): 12909; PD-L1 MFI at 33.3 nM (huPD-L1; Table E3): 33200; PD-L1 MFI at 33.3 nM (huPD-L1; Table E19, CHO cells stably expressing PD-L1): 6097"
,,,,,,,,,"A71D/L72V/E95K: variant CD80 IgV-Fc, IgV SEQ ID NO:192 (protein) VIHVTKEVKEVATLSCGHNVSVEELAQTRIYWQKEKKMVLTMMSGDMNIWPEYKNRTIFDITNNLSIVILDVRPSDEGTYECVVLKYEKDAFKRKHLAEVTLSVKAD","Average Relative Luminescence Units (CD28 [3]): 2939 Relative Luminescence Units; PD-L1-Dependent CD28 Costimulation, +PD-L1, 0.6 nM (CD28 [4]): 524; PD-L1-Dependent CD28 Costimulation, +PD-L1, 50 nM (CD28 [4]): 755; PD-L1-Dependent CD28 Costimulation, No PD-L1, 50 nM (CD28 [4]): 644; PD-L1-Dependent CD28 Costimulation, No PD-L1, […] (CD28 [4]): 466; CD28 costimulation, FcR Dependent Cross-Linking (No PD-L1), 0.6 nM (CD28 [5]): 1821; CD28 costimulation, FcR Dependent Cross-Linking (No PD-L1), 50 nM (CD28 [5]): 7109"
,,,,,,,,,"E23G/A26S/E35D/T62N/A71D/L72V/L85M: variant CD80 IgV-Fc, IgV SEQ ID NO:216 (protein) VIHVTKEVKEVATLSCGHNVSVGELSQTRIYWQKDKKMVLTMMSGDMNIWPEYKNRTIFDINNNLSIVILDVRPSDEGTYECVVMKYEKDAFKREHLAEVTLSVKAD","Average Relative Luminescence Units (CD28 [3]): 2067 Relative Luminescence Units; PD-L1-Dependent CD28 Costimulation, +PD-L1, 0.6 nM (CD28 [4]): 524; PD-L1-Dependent CD28 Costimulation, +PD-L1, 50 nM (CD28 [4]): 695; PD-L1-Dependent CD28 Costimulation, No PD-L1, 50 nM (CD28 [4]): 606; PD-L1-Dependent CD28 Costimulation, No PD-L1, […] (CD28 [4]): 566; CD28 costimulation, FcR Dependent Cross-Linking (No PD-L1), 0.6 nM (CD28 [5]): 2022; CD28 costimulation, FcR Dependent Cross-Linking (No PD-L1), 50 nM (CD28 [5]): 7855"
644,0.04,1.0,213 RLU,116798,0.74,31151,2.62,48,"Q33L/E35D/M47I/N48D/A71G (protein, UniProt P33681 35-288, looked up, variant Q33L E35D M47I N48D A71G) T-lymphocyte activation …: VIHVTKEVKEVATLSCGHNVSVEELAQTRIYWLKDKKMVLTMMSGDIDIWPEYKNRTIFDITNNLSIVILGLRPSDEGTYECVVLKYEKDAFKREHLAEVTLSVKADFPTPSISDFEIPTSNIRRIICSTSGGFPEPHLSWLENGEELNAINTTVSQDPETELYAVSSKLDFNMTTNHSFMCLIKYGHLRVNQTFNWNTTKQEHFPDNLLPSWAITLISVNGIFVICCLTYCFAPRCRERRRNERLRRESVRPV",
4095,0.23,7.0,1438 RLU,247703,1.57,35710,3.01,9,"E35D/M47I/L85Q/D90G (protein, UniProt P33681 35-288, looked up, variant E35D M47I L85Q D90G) T-lymphocyte activation …: VIHVTKEVKEVATLSCGHNVSVEELAQTRIYWQKDKKMVLTMMSGDINIWPEYKNRTIFDITNNLSIVILALRPSDEGTYECVVQKYEKGAFKREHLAEVTLSVKADFPTPSISDFEIPTSNIRRIICSTSGGFPEPHLSWLENGEELNAINTTVSQDPETELYAVSSKLDFNMTTNHSFMCLIKYGHLRVNQTFNWNTTKQEHFPDNLLPSWAITLISVNGIFVICCLTYCFAPRCRERRRNERLRRESVRPV",
336,0.02,1.1,227 RLU,4694,0.03,1590,0.13,5,"R29H/E35D/M43V/M47I/I49V (protein, UniProt P33681 35-288, looked up, variant R29H E35D M43V M47I I49V) T-lymphocyte activation …: VIHVTKEVKEVATLSCGHNVSVEELAQTHIYWQKDKKMVLTMVSGDINVWPEYKNRTIFDITNNLSIVILALRPSDEGTYECVVLKYEKDAFKREHLAEVTLSVKADFPTPSISDFEIPTSNIRRIICSTSGGFPEPHLSWLENGEELNAINTTVSQDPETELYAVSSKLDFNMTTNHSFMCLIKYGHLRVNQTFNWNTTKQEHFPDNLLPSWAITLISVNGIFVICCLTYCFAPRCRERRRNERLRRESVRPV",
1331,0.07,6.7,1381 RLU,274320,1.74,69780,5.88,52,"E35D/D46E/M47V/N63D/L85Q (protein, UniProt P33681 35-288, looked up, variant E35D D46E M47V N63D L85Q) T-lymphocyte activation …: VIHVTKEVKEVATLSCGHNVSVEELAQTRIYWQKDKKMVLTMMSGEVNIWPEYKNRTIFDITDNLSIVILALRPSDEGTYECVVQKYEKDAFKREHLAEVTLSVKADFPTPSISDFEIPTSNIRRIICSTSGGFPEPHLSWLENGEELNAINTTVSQDPETELYAVSSKLDFNMTTNHSFMCLIKYGHLRVNQTFNWNTTKQEHFPDNLLPSWAITLISVNGIFVICCLTYCFAPRCRERRRNERLRRESVRPV",
2698,0.15,8.1,1672 RLU,249456,1.59,12978,1.09,5,"E35D/T41S/M43V/M47I/L70M/A71G (protein, UniProt P33681 35-288, looked up, variant E35D T41S M43V M47I L70M A71G, Fc fusion) T-lymphocyte activation …: VIHVTKEVKEVATLSCGHNVSVEELAQTRIYWQKDKKMVLSMVSGDINIWPEYKNRTIFDITNNLSIVIMGLRPSDEGTYECVVLKYEKDAFKREHLAEVTLSVKADFPTPSISDFEIPTSNIRRIICSTSGGFPEPHLSWLENGEELNAINTTVSQDPETELYAVSSKLDFNMTTNHSFMCLIKYGHLRVNQTFNWNTTKQEHFPDNLLPSWAITLISVNGIFVICCLTYCFAPRCRERRRNERLRRESVRPV",
